Earlier results in patent US6022890A, “Immunosuppressant tetracyclic triterpenes” (Merck & Co., Inc., priority 1998, dated 2000).

Biological target: T1, Kv 1.3 channels (CHO cells transfected with Kv 1.3 channels) (Homo sapiens, UniProt P22001)
T1 construct: expressed in transfected cells; host or cells: CHO cells
Details: stated for the reference blocker that defines the efflux window

T1 sequence (P22001 whole entry): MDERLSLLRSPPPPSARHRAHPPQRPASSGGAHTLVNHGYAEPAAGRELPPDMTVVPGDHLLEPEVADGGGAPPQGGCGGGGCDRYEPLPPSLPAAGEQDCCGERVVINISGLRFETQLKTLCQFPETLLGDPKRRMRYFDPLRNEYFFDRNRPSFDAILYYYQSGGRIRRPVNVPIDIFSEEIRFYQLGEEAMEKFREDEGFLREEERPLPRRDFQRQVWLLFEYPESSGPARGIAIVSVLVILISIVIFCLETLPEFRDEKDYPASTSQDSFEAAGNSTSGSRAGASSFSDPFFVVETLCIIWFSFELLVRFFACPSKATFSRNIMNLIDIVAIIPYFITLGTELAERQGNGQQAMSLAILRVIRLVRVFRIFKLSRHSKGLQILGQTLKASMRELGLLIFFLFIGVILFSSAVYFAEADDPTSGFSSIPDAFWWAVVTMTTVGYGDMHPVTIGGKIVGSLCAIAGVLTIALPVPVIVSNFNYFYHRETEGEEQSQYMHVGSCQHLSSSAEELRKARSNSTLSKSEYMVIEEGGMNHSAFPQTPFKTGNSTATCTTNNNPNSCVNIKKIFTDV

## margatoxin (TIINVKCTSPKQCLPPCKAQFGQSAGAKCMNGKCKCYPH; UniProt P40755 1-39, looked up)
  IC50: 0.1 nM
